Assay results published in patent publication US20220127377A1 (DIACCURATE, published 2022).

Molecular target: T1, human PLA2-GIB (mature, active form) (human, UniProt P04054 23-148)
T1 construct: Recombinant human PLA2GIB standard in the ELISA, and endogenous PLA2GIB of patient plasma in the functional assays; also called GIBsPLA2; sPLA2-GIB
Assay: sandwich ELISA, coated capture mAb, recombinant human standard
Description: Sandwich ELISAs specific to proPLA2-GIB, PLA2GIB or both forms were performed using mAbs previously generated. For the detection of proPLA2GIB, the #8G11 mAb was used as a capture antibody and the #1C11 mAb was used as a revelation mAb. For the detection of PLA2GIB, the #14G9 mAb was used as a capture antibody and the #1C11 mAb was used as a revelation mAb. For the detection of both forms, the #7A10 mAb was used as a capture antibody and the #1C11 mAb was used as a revelation mAb. Typical assay conditions were as follows: #8G11- or #14G9-coated microplate was incubated for one hour with recombinant human proPLA2GIB or PLA2GIB standards (varying concentrations of protein in assay buffer) to generate a calibration curve. EDTA plasma samples were diluted (5- to 50-fold) in dilution buffer to their respective wells and the ELISA plate was incubated for 1 h at room temperature. […] Following washing with PBS containing 0.05% Tween 20, the binding of mAb was detected by treatment with a Streptavidin-HRP conjugate for 15 min at room temperature. TMB was added, reaction was stopped and absorbance at 450 nm was determined on a microplate reader. Signals were analyzed with a 4-parameter fit analysis using Prism™ software (Graph Pad).

T1 sequence (P04054 23-148): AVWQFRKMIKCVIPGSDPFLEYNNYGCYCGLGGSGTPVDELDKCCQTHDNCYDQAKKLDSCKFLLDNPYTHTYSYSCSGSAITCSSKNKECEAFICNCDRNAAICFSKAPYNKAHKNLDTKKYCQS

binding result: binds
B1: monoclonal antibody 14G9 (antibody, V domains shown)
VH: QVQLQQPGAELVKPGASVKLSCKASGYTFTNYWIHWVKRRPGQGLEWIGNIDPSDTRTHYNQKFKDKATLAVDKSSSTAYMQLSSLTSEDSAVFYCARQTLYYEALDYWGQGTTLTVSS
VL: DIVMTQSHKLMSTSVGDRVSITCKASQDVSTAVAWYQEKPGQSPKLLIYWASTRHTGVPNRFTGSRSGTDYTLTISSVQAEDLALYYCQQDYSTPPTFGAGTKLELKR
notes: also called #14G9 mAb; clone 14G9
